Tests used:
SEC = molecular target: the molecule itself; experiment: SEC
dynamic light scattering = molecular target: the molecule itself; experiment: dynamic light scattering

Protein	binding result (SEC)	stoichiometry N (dynamic light scattering) [monomers per particle]
ectodomain ephrinB1 (ed-ephrinB1), amino acids 26-236 of mouse ephrinB1 extracellular domain (domain or fragment, UniProt P52795 26-236, looked up) TPLAKNLEPVSWSSLNPKFLSGKGLVIYPKIGDKLDIICPRAEAGRPYEYYKLYLVRPEQAAACSTVLDPNVLVTCNKPHQEIRFTIKFQEFSPNYMGLEFKKYHDYYITSTSNGSLEGLENREGGVCRTRTMKIVMKVGQDPNAVTPEQLTTSRPSKESDNTVKTATQAPGRGSQGDSDGKHETVNQEEKSGPGAGGGGSGDSDSFFNSK	binds	
ectodomain ephrinB3 (ed-ephrinB3), amino acids 28-227 of mouse ephrinB3 extracellular domain (domain or fragment, UniProt O35393 28-227, looked up) LSLEPVYWNSANKRFQAEGGYVLYPQIGDRLDLLCPRARPPGPHSSPSYEFYKLYLVEGAQGRRCEAPPAPNLLLTCDRPDLDLRFTIKFQEYSPNLWGHEFRSHHDYYIIATSDGTREGLESLQGGVCLTRGMKVLLRVGQSPRGGAVPRKPVSEMPMERDRGAAHSAEPGRDTIPGDPSSNATSRGAEGPLPPPSMPA		104

— publication PMC4380140 (Journal of biomolecular screening, 2012)
